Test: yeast display, Sf9 membrane polyspecificity reagent, FACS + sequencing; frameworks hold sequencing errors
In short: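 Using colony PCR, genes from sorted yeast display clones were amplified, then sequenced on MiSeq at 2 × 250 and filtered by CDR length. The clones had been stained with 10% biotinylated, detergent-solubilized Sf9 membrane reagent for 1 hour at 4 °C and sorted by FACS into low and high (top ~1%) gates on anti-HA and streptavidin fluorescence. Polyreactivity labels come from the gate of origin.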

| Sequence | polyreactivity (PSR sort gate) |
| --- | --- |
| QVQLVESGGGLDQAGGTLRLSCAASGSTFSDYAMGWYRQAPGKERQLVAAISVSDGSTYYADSVKGRFTISRDNAKNTVYFQMNSLKPEDTAVYYCAAEYPYFVYSYFRFDYWGQGTQVTVSS | low polyreactivity |
| QVQLVESGGGLDQAGRSLRLICAASVFTIHAYAMGRYRQAHGKERELVAAISASGGSTYYADSVKGRFTISRDNANNTVYLKMNSLKPEDTAVYYCNAGDYRTFYRRFDYWGQGTQVTVSS | low polyreactivity |
| QVQLVESGGGLDQAGRSLRLSCAASGFIFYYNAMGWYRQAPGKQRELVAAISSGGSTNYADSVKGRFTISRDNAKNTVYLQMNSLQPEDTAVYYCAKRPTGGYKYYYTTSKYDYWGQGTQVTVSS | low polyreactivity |
| QVQLVESGGGLDQARGTLRLSCAASGITITLYAMGWYRQTPGKESELVAAISRGGGTTNYADSVKGRFTISRDNAKNTVFLELNSLKPEDNAVYYCAAAYTIYWFSYRVLYYYWGQGTQVTVSS | low polyreactivity |
| QVQLVESGGGLDQPGGSLRLTWAASGSTFYLYTMGWYRQAHGKERELVARISSSGSTNYADSVKGRFTISRDNAKNAVYLQMNSLKPEDTAVYYCNKDWIYRGYDYWGQATQVTVSS | high polyreactivity |
| QVQLVESGGGLEQAGGSIRLNCAASGSTFRYNAMGWYRQARGKERELVAAITWSGGSTYFADSVKGRFTISRDNAKHNVYLQMNSLKAEDTAVYYCAKVYFWGALSPYKYDEDYWGQGTQVTVSS | low polyreactivity |
| QVQLVESGGGLEQAGGSLRLSCAASGRTFQYYTMGLYRQAPGKERELVAAISTGGSTHYSDSVKGRFTISRDNAKNTVYLEMFSLKPVDTAVYYCAALWSRRRSRPRFPGDFWGQGTQLTVSS | high polyreactivity |
| QVQLVESGGGLFHAGGSLRLSCAASGRTFGIYAMGGSRQAPGKERELVAAITWSGDSTYYADSVKGRFTISRDNAKNTVYLQMNRLKPEDTAVYYCAADYVGVTSVRYDYWGQGTQVTVSS | low polyreactivity |
| QVQLVESGGGLFHAGGSLRLSCAASGSTFAYYAMGWYIQAPGKERELVAGISGSGGSTYYADSVKGRFTISRDNAKNTVYLQMKSLKPEDNAVYYCAVVQRSKRTYPWYDYWGQGTQVTVCS | low polyreactivity |
| QVQLVESGGGLFKAGGSLRLSCAASGSTLVTYAKGWYRQAPGKERELVAAISWRGGSTYYADSVKGRYTISRDNAKNTVYLQMNSLKPEDTEVYYCNKMRAYKESETYYFWGQGTQVTVSS | low polyreactivity |
| QVQLVESGGGLFLAGGSLRLSCAAAGSTFVTNDMGWYRQAPGKERELVAAISVGGRTSYADSVKGRFTISRDNAKNTVYLQMNSLKPEDTAVYYCAAQYRYTYWGQGTQVTVSS | low polyreactivity |
| QVQLVESGGGLFLAGGSLRLSCAASGSTFWYNMGWYRQAPGKDRELVAAISNSSGRTYYADSVKGRCTISRDNPKNTDYLQMKSLKPEDTAVYYSAADPKLGSRTGFYYWGQGTQVTVSS | high polyreactivity |
| QVQLVESGGGLFQAGGILILSFAASGNTLNYYTMGWYRQAPGKERELVAAISSSGGSTYYAESVKGSFTISRDYAKNTVYLHMNRLKPEDNAVYFCNDSVINEMNNWGQGTQVTVSS | low polyreactivity |
| QVQLVESGGGLFQAGGILRLTCAASGLTIYDYAMRWSRQAPAKERELVAANTRSAGSTYYADSVKGRFTISRDYAKYTVYLLMNSLKPEDTAVYYCAARGKIRYQGYYGSDQYYYWGQGTQVSVSS | high polyreactivity |
| QVQLVESGGGLFQAGGRLRLSCAASGSTFGYNAMGWYREAPGKERELVAAISYSSGSTYYADSVKGRFTISRDNAKNTVYLQMNSLKPEDTAVYYCAVVSRASRRGGRYDYWGQGTQVTVSS | high polyreactivity |
| QVQLVESGGGLFQAGGSIRLSCAASGRISEGYAMGWYIQAPGKERELVAAITSSTASTYYADSVKGRFTISRDNAKNTVYLQMNSLKPEDTAVYYCNADYGLYPEDYDYWGQGTQVTVSS | low polyreactivity |
| QVQLVESGGGLFQAGGSLRISCAASGSTFYHNFMGWYRQAPGKERELVARITSTDSTYYEDSVKGRFTISGDNAKNTVYLQMNSLKPEYTAVSYCAASWWSPYDYWGQATQVTVSS | low polyreactivity |
| QVQLVESGGGLFQAGGSLRISCAPSGFISHFYAMAWYRHAPGKEREFVARISYSVGSTYYADSVKGRFTISRDNAKNTVYVQMNSLKPEDTAVYDCNAGPQYDVHEYYYWGQGTQVTGSS | low polyreactivity |
| QVQLVESGGGLFQAGGSLRLRWAASGNTFRYYVMGWYRQAPGKERELVADINWSGGRTYYADSVKWGFTISRDNAKNTVYFQMNSLKPEDTAVFYCNAARKLYRYSYDYWGQGTQVTLSS | high polyreactivity |
| QVQLVESGGGLFQAGGSLRLSCAASGFIFFPYTMGWYRQAPGKERELVAAITNGGSTSYADSVKGRFTISRDNAKNTVYLQMNSLKPEDTAVYYCAADLGRNLLHTYYYWGQGTQVTVSS | low polyreactivity |
| QVQLVESGGGLFQAGGSLRLSCAASGFIFQYYDMGWYRQAPGKERELVAAINYSGGNTYYADSVKGRFTISRDNAKNTVYLQLNILKPEDSEVFYCAAAPSVSCTRLYEYWGQGTQVTVSS | high polyreactivity |
| QVQLVESGGGLFQAGGSLRLSCAASGFTFSFNTMGWYRQAPVKERELVAAIRNNGGGTNYADSVKGRFTISRDKAMNTVYLQMNSLKPEDTAVYYCAADRIYAWFGRLYYWGQGTQVTGSS | low polyreactivity |

| Sequence | polyreactivity (PSR sort gate) |
| --- | --- |
| QVQLVESGGGLFQAGGSLRLSCAASGFTIFLNAMGWYRQAPGKERELVAAITVSGSSTYYADSVKGRFTISRDNAKNTVYLQMNSLKPEDTAVYYCNAEIYSPYYTYDYWGQGTQVTVSS | low polyreactivity |
| QVQLVESGGGLFQAGGSLRLSCAASGIIFPYYVMGWSRQAPGTEREFVATISWSGGRTYYADSVKGRFTISRDNAKNTVYFQMNSLKPEDTAVYYCAAAKHYYNGYGYWGQGTQVTVSS | high polyreactivity |
| QVQLVESGGGLFQAGGSLRLSCAASGITLYLYVMGWYRQAPGIEREFVAAIRWSGGSTYYADSVKGRFTISRDNAKYTVYLLMNSLKPEDTAVYYCAVTYVGHVYEYYYWGQGTQVTVSS | low polyreactivity |
| QVQLVESGGGLFQAGGSLRLSCAASGLIFSSNAMGWYRQAPGKERELVATISWSGGSTYYADSVKGRFTISRDKAKNNVYLQMNSQKPEDTAVYYCAAAQRWSFLHYYYYWGQGTQVTVSS | high polyreactivity |
| QVQLVESGGGLFQAGGSLRLSCAASGLTFYIYAMGWYRQAPGKEREFVAAIRRSGGRTYYADSVKGRFTISRDNAKNTVYLQMNSLKPEDTAVYYCNRYTQYRDRSDNHWGQGTQVTVSS | high polyreactivity |
| QVQLVESGGGLFQAGGSLRLSCAASGNTFPYYAMGWYRQAPVKERELVAAISRSGGTTYYADSVKGRFTISRDNAKNTVYLQMTSLKPEDTAVYYCAALYGSRSTYHMDDYWGQGSQVTVSS | high polyreactivity |
| QVQLVESGGGLFQAGGSLRLSCAASGRIFHWYAMGWYRQAPGKERELHAAITDGDSTYYADSVKGRFTISRDNAKNTVYLQMNSLKPEDTAVYYCAADVVYSPYVFGGTRYYKYDYWGQVTQVTVSS | low polyreactivity |
| QVQLVESGGGLFQAGGSLRLSCAASGRIFSDYAMGWYRQAPGKERELVATITSGDSTNYADSVKGRFTISRDNAKNTVYLQMNSLKPEDTAVYYCNADRFADYDYWGQGTQVTVSS | low polyreactivity |
| QVQLVESGGGLFQAGGSLRLSCAASGRTFDDYAMGWYRQAPGKERELVAGITDNGGGTNYADSVKGRFTISRDNAKNTVYLQMNSLKQEDTAVYYCAAGETFEMYYWGQVTQVTVSS | low polyreactivity |
| QVQLVESGGGLFQAGGSLRLSCAASGRTFGIYAMRWYRQAPGKERELVATISWRGGSTYYADSVKGRFTISRDNAKNTVDLQMNSLKPEDTAVYYCAAVLTALSPDFEYEYWGQGTQVTVSS | low polyreactivity |
| QVQLVESGGGLFQAGGSLRLSCAASGRTFHANAMGWYRQAPGKERELVARINWSGTSTYYADSVKGRFTISRDNAKNTVYLQMNSLKPEDTAVYYCAAGWIRQYSSLYDYWGQGTQVTVSS | high polyreactivity |
| QVQLVESGGGLFQAGGSLRLSCAASGRTFLYYTMGWYRQAPGKERELVAAITSGTSTNYADSVKGRFTISRDNAKNTVYLQMNSLKPEDTAVYYCNKRAARSLNGYPLYGYYYWGQGTQVTVSS | low polyreactivity |
| QVQLVESGGGLFQAGGSLRLSCAASGRTFRYYVMGWYRQAPGKERELVAAISKSGASTYYADSVKGRFTISRDNAKYTVYSQMNSLKPEDTAVYYCAAGGVYSIYRTSRVGYDYWGQGTQVTVSS | high polyreactivity |
| QVQLVESGGGLFQAGGSLRLSCAASGRTFSRYVMGWYRQAPGKERELVAAISRTGGRKYYADSVKGRFTITRDNAKNTVYLQMNSLKPEDTAVYYCNAGTVLISTYDYWGQGTQVTVSS | high polyreactivity |
| QVQLVESGGGLFQAGGSLRLSCAASGRTIYLNAMGWYRQAPLKERELVAAITSSGGRTYYADSVKGRFTISRDNAKNSVYLQMNSLKPEDTAVYYCAAVVSSKPSFYWGQGSQVTVSS | low polyreactivity |
| QVQLVESGGGLFQAGGSLRLSCAASGSIFDSYAMGWYRQAPGKDREVVAAISSDCGSTYYADSVKGRFTISRDNAKNTVYLQMNSLKPEDTAVYFCAVEDYSSPYDFDSWGQGTQVTVSS | low polyreactivity |
| QVQLVESGGGLFQAGGSLRLSCAASGSIFRYYVMGWYRQAPGKEMELVAAISTGDRTNYADSVKGRFTISRDNAKNTVYLQMNSLKPEDTAVYYCNADYVVGWARLEFNYWGQGTQVTVSS | low polyreactivity |
| QVQLVESGGGLFQAGGSLRLSCAASGSTFVANAMGWYRQAPGKERELVAAISSSGGSTYYADSVKGRFTISRDIAKNTVYLQMNSLKHDDTAVYYCNARSISRKKGYPPQRRDGYWGQGTQVTVSS | high polyreactivity |
| QVQLVESGGGLFQAGGSLRLSCAASGSTFYRYTMGWYRQAPGKERELVASISRSGGSTYYADSVKGRFTISRDNAKNTVYLQMNSLKPEDTAVYYCAAKAQGKYYQYNYWGQGTQVTVSS | high polyreactivity |
| QVQLVESGGGLFQAGGSLRLSCAASGSTFYTNAMGWYRQAPGKERELVAAISWSGGSTYYADSVKGRFTIARDNAKNPVYLQLNSLKPEDTAVYYCDVSGTHFRYDYWGQGTQVTVSS | high polyreactivity |
| QVQLVESGGGLFQAGGSLRLSCAASGTTFAYYTMGWYIQAPGTERELVAAITSGGRTSYADSVKGRFTISRDNAKNTVYLLMNSLKPEDTAFFSCAKCRKPGYYYWGQGNQVTVSS | high polyreactivity |
